From patent US20030083294
Like-named read-outs stand apart in the source and are kept apart here.

Assays:
[1] = target: T1, coagulation factor IXa (FIXa) (Homo sapiens) (UniProt P00740+P00740); assay: competition; settings: 2'-F pyrimidines, 2'-OH purines; 3-nt 2'-OMe 3' tail; comparable to 9.3t
[2] = target: T2, coagulation factor Xa (FXa) (Homo sapiens) (UniProt P00742+P00742); settings: 2'-F pyrimidines, 2'-OH purines; <10% RNA bound at up to 5 uM protein; >5000-fold specificity
[3] = target: coagulation factor VIIa (FVIIa) (UniProt P08709+P08709); settings: 2'-F pyrimidines, 2'-OH purines; <10% RNA bound at up to 5 uM protein; >5000-fold specificity
[4] = target: coagulation factor XIa (FXIa) (UniProt P03951+P03951); settings: 2'-F pyrimidines, 2'-OH purines; <10% RNA bound at up to 5 uM protein; >5000-fold specificity
[5] = target: activated protein C (APC) (UniProt P04070+P04070); settings: 2'-F pyrimidines, 2'-OH purines; <10% RNA bound at up to 5 uM protein; >5000-fold specificity
[6] = target: T1, coagulation factor IXa (FIXa) (Homo sapiens); settings: 2'-F pyrimidines, 2'-OH purines; physiologic salt and pH, 37 C
[7] = target: T2, coagulation factor Xa (FXa) (Homo sapiens); settings: 2'-F pyrimidines?
[8] = target: T2, coagulation factor Xa (FXa) (Homo sapiens); settings: 2'-F pyrimidines?; versus 11F7t; no anticoagulant activity in PT or APTT

In the case of “AUGGGGACUAUACCGCGUAAUGCUGCCUCCCCAUN [9.3t-3NT]”, the Kd [1] is reported as < 1.5 nM.

With “AUGGGGACUAUACCGCGUAAUGCUGCCUCCCCAUN [9.3t]” the Kd [2] was > 5000 nM, the Kd [3] was > 5000 nM and the Kd [4] was > 5000 nM. For the same sequence, the Kd [5] was > 5000 nM and the Kd [6] was 0.6 nM.

In the case of “GAGAGCCCCAGCGAGAUAAUACUUGGCCCCGCUCUUN [11F7t]”, the Kd [7] is reported as 1.5 nM.

With “GAGAGCCCCAGCGAGAUAAUACUUGUACCCGCUCUUN [11F7tM]” the binding signal (fold loss of affinity) [8] was > 1300.
